From article PMC3033579

Legend:
DnaD = target: T1, DnaD (Bacillus subtilis, UniProt P39787 1-232); test: EMSA
T1 sequence: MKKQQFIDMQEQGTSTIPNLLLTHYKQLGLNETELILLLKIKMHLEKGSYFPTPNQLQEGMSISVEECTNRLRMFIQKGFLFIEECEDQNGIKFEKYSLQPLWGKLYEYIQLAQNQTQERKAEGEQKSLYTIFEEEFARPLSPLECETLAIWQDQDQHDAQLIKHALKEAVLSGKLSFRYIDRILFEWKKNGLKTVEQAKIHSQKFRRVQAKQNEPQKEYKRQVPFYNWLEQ

SSB = target: T2, SSB (Bacillus subtilis, UniProt P37455 1-172); test: EMSA
T2 sequence: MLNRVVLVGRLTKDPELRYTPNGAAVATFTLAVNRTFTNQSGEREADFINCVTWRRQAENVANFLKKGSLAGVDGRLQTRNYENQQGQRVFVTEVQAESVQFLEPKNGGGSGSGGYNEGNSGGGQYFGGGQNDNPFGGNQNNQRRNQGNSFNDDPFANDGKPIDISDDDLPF

Q: For TTACACAGTAACTCATATGCTTCGCTATTACGCC (ssDNA) [34mer oligonucleotide], which binding signal (DnaD) is on record?
A: 600 fold lower affinity than SSB

Q: And the binding signal (SSB)?
A: 600 fold higher affinity than Cd and DnaD
